{
  "source": "paper PMC4278676",
  "proteins": {"B1": {"name": "SeCobA (Salmonella enterica subsp. enterica serovar Typhimurium str. LT2) (protein)", "chain": "MSDERYQQRQQKVKDRVDARVAQAQEERGIIIVFTGNGKGKTTAAFGTAARAVGHGKNVGVVQFIKGTWPNGERNLLEPHGVEFQVMATGFTWETQNREADTAACMAVWQHGKRMLADPLLDMVVLDELTYMVAYDYLPLEEVISALNARPGHQTVIITGRGCHRDILDLADTVSELRPVKHAFDAGVKAQMGIDY"}},
  "substrate": "Nc1ncnc2c1ncn2[C@@H]1O[C@H](COP(=O)(O)OP(=O)(O)OP(=O)(O)O)[C@@H](O)[C@H]1O",
  "experiment": "purified protein",
  "settings": "co-substrate Co(II)Cbi^+",
  "data": [
    {"protein": "B1", "values": [
      {"measurement": "Km", "value": "25.4 ± 9.0", "unit": "µM"},
      {"measurement": "kcat", "value": 0.0067, "unit": "s⁻¹"},
      {"measurement": "kcat/Km", "value": 260, "unit": "M⁻¹ s⁻¹"}
    ]}
  ]
}
